Results on two molecules are retold here after article PMC11085213, “Plastid Molecular Chaperone HSP90C Interacts with the SecA1 Subunit of Sec Translocase for Thylakoid Protein Transport” (Plants, 2024).

The target in data set [1] is His6-tagged mSecA1 (Arabidopsis) (UniProt Q9SYI0).
Substrate in data set [2]: Nc1ncnc2c1ncn2[C@@H]1O[C@H](COP(=O)(O)OP(=O)(O)OP(=O)(O)O)[C@@H](O)[C@H]1O
Description: ATPase, NADH-coupled (pyruvate kinase / lactate dehydrogenase); radicicol-sensitive activity. It counts as biochemical, Arabidopsis thaliana. The conditions noted are these: pH 7.5, 5 mM MgCl2, 500 mM KCl, HSP90C alone, called ATP binding affinity.

Sequence of His6-tagged mSecA1 (Arabidopsis) (Q9SYI0 73-1022): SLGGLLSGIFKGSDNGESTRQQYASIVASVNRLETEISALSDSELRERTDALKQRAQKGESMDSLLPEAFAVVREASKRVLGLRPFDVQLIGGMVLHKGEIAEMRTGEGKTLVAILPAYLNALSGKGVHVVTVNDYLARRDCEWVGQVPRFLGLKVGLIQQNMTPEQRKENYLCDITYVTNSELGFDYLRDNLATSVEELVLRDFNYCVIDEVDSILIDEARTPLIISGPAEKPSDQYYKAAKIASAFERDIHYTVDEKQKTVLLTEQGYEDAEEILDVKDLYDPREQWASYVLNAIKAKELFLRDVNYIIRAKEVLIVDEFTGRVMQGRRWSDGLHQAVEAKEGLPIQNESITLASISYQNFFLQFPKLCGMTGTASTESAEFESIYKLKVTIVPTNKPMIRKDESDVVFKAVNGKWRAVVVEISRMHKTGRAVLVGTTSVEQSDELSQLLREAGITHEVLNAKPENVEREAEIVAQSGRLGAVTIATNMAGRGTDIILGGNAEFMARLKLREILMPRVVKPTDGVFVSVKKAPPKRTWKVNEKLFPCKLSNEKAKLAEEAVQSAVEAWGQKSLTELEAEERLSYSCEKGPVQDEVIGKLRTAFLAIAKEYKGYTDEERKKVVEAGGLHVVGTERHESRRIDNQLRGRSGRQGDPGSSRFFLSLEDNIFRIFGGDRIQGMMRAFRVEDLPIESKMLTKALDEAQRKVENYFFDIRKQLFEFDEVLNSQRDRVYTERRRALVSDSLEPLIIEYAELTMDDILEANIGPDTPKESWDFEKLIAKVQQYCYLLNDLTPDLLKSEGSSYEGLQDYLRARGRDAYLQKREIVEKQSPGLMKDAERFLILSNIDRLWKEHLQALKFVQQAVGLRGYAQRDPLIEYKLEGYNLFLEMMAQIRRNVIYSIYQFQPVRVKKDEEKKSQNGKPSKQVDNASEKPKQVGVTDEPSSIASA

Regarding “His6-tagged HSP90C (from UniProt Q9SIF2 61-780) (natural protein)”, in data set [1], the combined ATP turnover rate (kcat) of the equimolar mixture SecA1 + HSP90C (1.41 μM each), NADH-coupled assay at 5 mM ATP; sum of the two proteins' own average rates 2.93 min^−1 amounted to 0.0581 s⁻¹ and the rise of the ATP turnover rate of SecA1 + HSP90C + PsbO1 (equimolar) relative to the SecA1 + HSP90C mixture, NADH-coupled assay was 16%.

B1: HSP90C (Arabidopsis thaliana) (protein)
chain: CDAAVAEKETTEEGSGEKFEYQAEVSRLLDLIVHSLYSHKEVFLRELVSNASDALDKLRFLSVTEPSLLGDGGDLEIRIKPDPDNGTITITDTGIGMTKEELIDCLGTIAQSGTSKFLKALKENKDLGADNGLIGQFGVGFYSAFLVAEKVVVSTKSPKSDKQYVWESVADSSSYLIREETDPDNILRRGTQITLYLREDDKYEFAESTRIKNLVKNYSQFVGFPIYTWQEKSRTIEVEEDEPVKEGEEGEPKKKKTTKTEKYWDWELANETKPLWMRNSKEVEKGEYNEFYKKAFNEFLDPLAHTHFTTEGEVEFRSILYIPGMGPLNNEDVTNPKTKNIRLYVKRVFISDDFDGELFPRYLSFVKGVVDSDDLPLNVSREILQESRIVRIMRKRLIRKTFDMIQEISESENKEDYKKFWENFGRFLKLGCIEDTGNHKRITPLLRFFSSKNEEELTSLDDYIENMGENQKAIYYLATDSLKSAKSAPFLEKLIQKDIEVLYLVEPIDEVAIQNLQTYKEKKFVDISKEDLELGDEDEVKDREAKQEFNLLCDWIKQQLGDKVAKVQVSNRLSSSPCVLVSGKFGWSANMERLMKAQALGDTSSLEFMRGRRILEINPDHPIIKDLNAACKNAPESTEATRVVDLLYDTAIISSGFTPDSPAELGNKIYEMMAMAVGGRWGRVEEEEESSTVNEGDDKSGETEVVEPSEVRAESDPWQD
notes: His6-tagged HSP90C (pProEX HTb), E. coli BL21(DE3)-pRIL, Ni-NTA and Superdex 200
Take B1: in data set [2], the Km is 4.01 mM.
